# Measurements published in publication PMC4425688.
# B1: BT1715 (Bacteroides thetaiotaomicron VPI-5482) (protein)
# chain: MNYAFVVQARLGSTRLPGKILKPFYGNQSILDLMVHKLSAISNIPVIIATTNSVINEPIEKKALALGVKCFRGEENDVLKRFIDVAEYFDIQGIFRICSDNPFLDVHAARQLVEIAMKSCNDYISFDIDGTPSIKTHFGFWGEFVTLDALKRVIGFTDDLLYREHVTNYIYSHPELFNIQWISGSPVVSKHHNIRLTIDTLEDFSVAQRIYRDLQEKRVEISIEVIVDYVRRHAEYIQLMKQQIKKNSK
# Substrate: Nc1ccn([C@@H]2O[C@H](COP(=O)(O)OP(=O)(O)OP(=O)(O)O)[C@@H](O)[C@H]2O)c(=O)n1
# Experiment: purified protein
# Format: biochemical, Bacteroides thetaiotaomicron
# Conditions: 6 mM KDN, 10 mM MgCl2, Tris pH 7.5, 25 °C
protein,measurement,value
B1,Km,510 ± 30 µM
same,kcat,0.017 ± 0.0005 s⁻¹
